Measurements reported in PMC8901441, “The interplay between BAX and BAK tunes apoptotic pore growth to control mitochondrial-DNA-mediated inflammation” (Molecular Cell, 2022).
Each block holds one molecule with its values, some of them ahead of it.

Legend:
[1] = target: BAK-488 (full-length mouse BAK L192K, F193S, Y196D, C154S, labelled with Atto 488) (mouse) (UniProt O08734); assay: single-molecule TIRF brightness (stoichiometry) analysis; 1, 5 or 10 nM labelled protein incubated 1 h with EPC:CL 8:2 LUVs (150 mM NaCl, 10 mM HEPES/KOH, pH 7.4), activated by heat (43°C), or 1 nM BAK-488 by 2 nM cBid; proteoliposomes diluted with LUVs and fused into supported lipid bilayers on glass; corrected for partial labelling
[2] = target: the molecule itself; assay: as above

stoichiometry N [1]: 2
Molecule: BAK-488 (full-length mouse BAK L192K, F193S, Y196D, C154S, labelled with Atto 488) (from UniProt O08734 1-209) (natural protein)

B1: BAX-488 (single-cysteine, full-length human BAX S4C, C62S, C126S, labelled with Atto 488) (natural protein, UniProt Q07812 1-192, looked up)
chain: MDGCGEQPRGGGPTSSEQIMKTGALLLQGFIQDRAGRMGGEAPELALDPVPQDASTKKLSESLKRIGDELDSNMELQRMIAAVDTDSPREVFFRVAADMFSDGNFNWGRVVALFYFASKLVLKALSTKVPELIRTIMGWTLDFLRERLLGWIQDQGGWDGLLSYFGTPTWQTVTIFVAGVLTASLTIWKKMG
modifications: Atto 488 covalently attached to the single cysteine
notes: BAX, human, single-cysteine mutant (S4C, C62S, C126S); Plasmid pTYB1_hBAX-S4C,C62S, C126S from a previous study (doi 10.1038/ncomms9042); Labelling efficiency 84%; also called hBAX-S4C,C62S, C126S
stoichiometry N [2]: ≤ 10
